The supplement of paper PMC7877785
± gives the uncertainty stated by the source.

Experiment: self-splicing fitness, log relative to wild type (ln ratio); higher = more splicing; Tetrahymena group I intron in knt gene, E. coli kanamycin selection, DiMSum; sequences stand for … in CUCUCU…GGAGGGAAAAGUUAUCAGGCAUGCACCUGGUAGCUAGUCUUUAAACCAAUAGAUUGCAUCGGUUUAAAAGGCAAGACCGUCAAAUUGCGGGAAAGGGGUCAACAGCCGUUCAGUACCAAGUCUCAGGGGAAACUUUGAGAUGGCCUUGCAAAGGGUAUGGUAAUAAGCUGACGGACAUGGUCCUAACCACGCAGCCAAGUCCUAAGUCAACAGAUCUUCUGUUGAUAUGGAUGCAGUUCACAGACUAAAUGUCGGUCGGGGAAGAUGUAUUCUUCUCAUAAGAUAUAGUCGGACCUCUCCUUAAUGGGAGCUAGCGGAUGAAGUGAUGCAACACUGGAGCCGCUGGGAACUAAUUUGUAUGCGAAAGUAUAUUGAUUAGUUUUGGAGUACUCGUGGUCG
In short: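 The eight P1ex-region nucleotides of an intron in the knt kanamycin-resistance gene on pET-22b(+) were all randomised and the library put into E. coli BL21(DE3). Six replicate transformations were grown overnight at 37°C or 30°C on LB agar with or without 25 μg/mL kanamycin, together with 100 μg/mL carbenicillin, 50 μM IPTG and 0.2% rhamnose. Colonies were pooled and amplicon-sequenced on an Illumina HiSeq 2500. Fitness from DiMSum is the error-weighted combination of wild-type-normalised replicate fold changes, kanamycin over none.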

| Sequence | self-splicing fitness (ln) (30 °C) | self-splicing fitness (ln) (37 °C) |
| --- | --- | --- |
| GGGCAGCAAUAUUACGGGAG | -3.27 ± 0.22 | -2.21 ± 0.2 |
| GGGCAGCAAUAUUACGGGAU | -4.22 ± 0.42 | -1.2 ± 0.17 |
| GGGCAGCAAUAUUACGGGUU | -1.58 ± 0.12 | -0.384 ± 0.12 |
| GGGCAGCAAUAUUACGUAAC | -1.94 ± 0.18 | -0.668 ± 0.2 |
| GGGCAGCAAUAUUACGUCCG | -0.61 ± 0.091 | -0.058 ± 0.14 |
| GGGCAGCAAUAUUACGUCGC | -1.69 ± 0.1 | -1.54 ± 0.14 |
| GGGCAGCAAUAUUACGUCGG | -0.72 ± 0.12 | 0.392 ± 0.15 |
| GGGCAGCAAUAUUACGUGAU | -1.61 ± 0.11 | 0.0478 ± 0.11 |
| GGGCAGCAAUAUUACGUUCC | -2.68 ± 0.23 | -2.58 ± 0.37 |
| GGGCAGCAAUAUUACGUUCG | -0.761 ± 0.088 | -0.431 ± 0.11 |
| GGGGAGCAAUAUUACGACGA | -2.56 ± 0.4 | -1.34 ± 0.28 |
| GGGGAGCAAUAUUACGAGUA | -2.89 ± 0.3 | -2.98 ± 0.43 |
| GGGGAGCAAUAUUACGAGUU | -3.08 ± 0.45 | – |
| GGGGAGCAAUAUUACGCGCG | -1.83 ± 0.15 | -0.952 ± 0.17 |
| GGGGAGCAAUAUUACGCGGC | – | -1.24 ± 0.49 |
| GGGGAGCAAUAUUACGCGGG | -2.7 ± 0.31 | -1.72 ± 0.39 |
| GGGGAGCAAUAUUACGCGUC | -3.26 ± 0.43 | -1.47 ± 0.23 |
| GGGGAGCAAUAUUACGCUCU | – | -2.19 ± 0.49 |
| GGGGAGCAAUAUUACGCUGG | -2.98 ± 0.47 | -0.764 ± 0.47 |
| GGGGAGCAAUAUUACGGCAU | -1.9 ± 0.13 | -1.53 ± 0.15 |
| GGGGAGCAAUAUUACGGCGG | – | -0.394 ± 0.41 |
| GGGGAGCAAUAUUACGGGAU | -3.44 ± 0.32 | -1.51 ± 0.22 |
| GGGGAGCAAUAUUACGUACG | -1.76 ± 0.16 | -0.525 ± 0.18 |
| GGGGAGCAAUAUUACGUAGG | -2.68 ± 0.2 | -1.85 ± 0.21 |
| GGGGAGCAAUAUUACGUAUU | – | -3.33 ± 0.42 |
| GGGGAGCAAUAUUACGUGAA | -2.71 ± 0.085 | -1.81 ± 0.12 |

| Sequence | self-splicing fitness (ln) (30 °C) | self-splicing fitness (ln) (37 °C) |
| --- | --- | --- |
| GGGUAGCAAUAUUACGACGC | -1.08 ± 0.14 | 0.108 ± 0.25 |
| GGGUAGCAAUAUUACGACGU | -0.726 ± 0.12 | -0.0177 ± 0.14 |
| GGGUAGCAAUAUUACGCGAG | -1.85 ± 0.32 | -0.555 ± 0.18 |
| GGGUAGCAAUAUUACGCUCA | -0.291 ± 0.17 | -0.622 ± 0.26 |
| GGGUAGCAAUAUUACGCUCG | -0.269 ± 0.13 | -0.258 ± 0.16 |
| GGGUAGCAAUAUUACGGCCA | -0.214 ± 0.16 | -0.498 ± 0.24 |
| GGGUAGCAAUAUUACGGGGA | -3.52 ± 0.35 | -2.31 ± 0.38 |
| GGGUAGCAAUAUUACGGGGU | -3.33 ± 0.32 | -3.06 ± 0.47 |
| GGGUAGCAAUAUUACGGUGC | -1.9 ± 0.085 | -1.34 ± 0.092 |
| GGGUAGCAAUAUUACGUAAU | -0.889 ± 0.085 | -0.379 ± 0.11 |
| GGGUAGCAAUAUUACGUACU | -2.25 ± 0.4 | -1.43 ± 0.38 |
| GGGUAGCAAUAUUACGUGCG | -0.234 ± 0.097 | -0.0569 ± 0.12 |
| GGGUAGCAAUAUUACGUGCU | -0.698 ± 0.15 | -0.399 ± 0.19 |
| GGGUAGCAAUAUUACGUGGC | – | -2.64 ± 0.33 |
| GGGUAGCAAUAUUACGUUUA | -0.585 ± 0.12 | -0.381 ± 0.1 |
| GGUAAGCAAUAUUACGAAUG | -2.23 ± 0.29 | -2.81 ± 0.36 |
| GGUAAGCAAUAUUACGAGUC | -2.59 ± 0.16 | -0.851 ± 0.13 |
| GGUAAGCAAUAUUACGCAAC | – | -1.35 ± 0.38 |
| GGUAAGCAAUAUUACGCACG | 0.408 ± 0.12 | -0.102 ± 0.14 |
| GGUAAGCAAUAUUACGCAUG | -2.62 ± 0.12 | -1.13 ± 0.11 |
| GGUAAGCAAUAUUACGCCAA | -2.07 ± 0.23 | -2.09 ± 0.24 |
| GGUAAGCAAUAUUACGCCGU | -1.93 ± 0.11 | -0.738 ± 0.13 |
| GGUAAGCAAUAUUACGCGGC | -2.84 ± 0.19 | -1.29 ± 0.2 |
| GGUAAGCAAUAUUACGCGUU | -1.34 ± 0.091 | -0.615 ± 0.13 |
| GGUAAGCAAUAUUACGGAAU | -3.35 ± 0.22 | -1.87 ± 0.22 |
| GGUAAGCAAUAUUACGGACG | 0.0239 ± 0.12 | 0.484 ± 0.15 |

| Sequence | self-splicing fitness (ln) (30 °C) | self-splicing fitness (ln) (37 °C) |
| --- | --- | --- |
| GGUAAGCAAUAUUACGGCGA | -0.523 ± 0.11 | -0.26 ± 0.13 |
| GGUAAGCAAUAUUACGGGUC | -2.39 ± 0.24 | -1.81 ± 0.31 |
| GGUAAGCAAUAUUACGGUAG | -3.72 ± 0.19 | -3.15 ± 0.23 |
| GGUAAGCAAUAUUACGGUUG | -3.76 ± 0.39 | – |
| GGUAAGCAAUAUUACGUAAA | -0.961 ± 0.083 | -1.13 ± 0.13 |
| GGUAAGCAAUAUUACGUAAG | -2.85 ± 0.16 | -2.17 ± 0.17 |
| GGUAAGCAAUAUUACGUGCA | -0.586 ± 0.089 | -0.233 ± 0.13 |
| GGUAAGCAAUAUUACGUUAC | -3.08 ± 0.34 | -1.35 ± 0.31 |
| GGUCAGCAAUAUUACGAACG | 0.0341 ± 0.039 | 0.332 ± 0.057 |
| GGUCAGCAAUAUUACGAAUA | -0.866 ± 0.13 | -0.645 ± 0.14 |
| GGUCAGCAAUAUUACGAAUU | 0.104 ± 0.078 | 0.599 ± 0.091 |
| GGUCAGCAAUAUUACGACGU | 0.0937 ± 0.091 | 0.477 ± 0.1 |
| GGUCAGCAAUAUUACGACUC | -3.25 ± 0.24 | -1.61 ± 0.32 |
| GGUCAGCAAUAUUACGAGAU | -2.39 ± 0.14 | -2.31 ± 0.23 |
| GGUCAGCAAUAUUACGAGGU | -1.01 ± 0.13 | -1.7 ± 0.22 |
| GGUCAGCAAUAUUACGAUAC | -1.32 ± 0.16 | -1.59 ± 0.19 |
| GGUCAGCAAUAUUACGCAAA | -1.16 ± 0.17 | -0.412 ± 0.18 |
| GGUCAGCAAUAUUACGCACU | -2.12 ± 0.27 | -0.976 ± 0.24 |
| GGUCAGCAAUAUUACGCAUU | 0.00502 ± 0.059 | 0.0322 ± 0.069 |
| GGUCAGCAAUAUUACGCCCA | -1.55 ± 0.21 | -0.611 ± 0.28 |
| GGUCAGCAAUAUUACGCUUA | 0.0476 ± 0.059 | 0.296 ± 0.078 |
| GGUCAGCAAUAUUACGGAGG | – | -2.54 ± 0.36 |
| GGUCAGCAAUAUUACGGAUA | -0.579 ± 0.086 | 0.248 ± 0.11 |
| GGUCAGCAAUAUUACGGGAG | -3.38 ± 0.22 | -1.45 ± 0.12 |
| GGUCAGCAAUAUUACGGGUG | -1.3 ± 0.067 | -0.637 ± 0.072 |
| GGUCAGCAAUAUUACGGUAU | -0.344 ± 0.11 | 0.218 ± 0.13 |
